Assay results taken from publication PMC9444072.

Biological target: BK channel α subunit (hSloα1, human slow poke alpha subunit K+ channel) (human) (UniProt Q12791)
Assay: native gel or EMSA; native SMA-PAGE (4-16% Tris/glycine gradient gel, 150 V, 1 h, room temperature) of Ni-NTA purified SMALPs from HEK293 membranes, followed by western blot with anti-hsloα, anti-hsloβ or anti-his antibodies; subunits co-expressed in cells and extracted together

BK channel α subunit (hSloα1, human slow poke alpha subunit K+ channel), Q12791 1-1236 (natural protein; other documents disagree on this pair), sequence (Q12791 whole entry): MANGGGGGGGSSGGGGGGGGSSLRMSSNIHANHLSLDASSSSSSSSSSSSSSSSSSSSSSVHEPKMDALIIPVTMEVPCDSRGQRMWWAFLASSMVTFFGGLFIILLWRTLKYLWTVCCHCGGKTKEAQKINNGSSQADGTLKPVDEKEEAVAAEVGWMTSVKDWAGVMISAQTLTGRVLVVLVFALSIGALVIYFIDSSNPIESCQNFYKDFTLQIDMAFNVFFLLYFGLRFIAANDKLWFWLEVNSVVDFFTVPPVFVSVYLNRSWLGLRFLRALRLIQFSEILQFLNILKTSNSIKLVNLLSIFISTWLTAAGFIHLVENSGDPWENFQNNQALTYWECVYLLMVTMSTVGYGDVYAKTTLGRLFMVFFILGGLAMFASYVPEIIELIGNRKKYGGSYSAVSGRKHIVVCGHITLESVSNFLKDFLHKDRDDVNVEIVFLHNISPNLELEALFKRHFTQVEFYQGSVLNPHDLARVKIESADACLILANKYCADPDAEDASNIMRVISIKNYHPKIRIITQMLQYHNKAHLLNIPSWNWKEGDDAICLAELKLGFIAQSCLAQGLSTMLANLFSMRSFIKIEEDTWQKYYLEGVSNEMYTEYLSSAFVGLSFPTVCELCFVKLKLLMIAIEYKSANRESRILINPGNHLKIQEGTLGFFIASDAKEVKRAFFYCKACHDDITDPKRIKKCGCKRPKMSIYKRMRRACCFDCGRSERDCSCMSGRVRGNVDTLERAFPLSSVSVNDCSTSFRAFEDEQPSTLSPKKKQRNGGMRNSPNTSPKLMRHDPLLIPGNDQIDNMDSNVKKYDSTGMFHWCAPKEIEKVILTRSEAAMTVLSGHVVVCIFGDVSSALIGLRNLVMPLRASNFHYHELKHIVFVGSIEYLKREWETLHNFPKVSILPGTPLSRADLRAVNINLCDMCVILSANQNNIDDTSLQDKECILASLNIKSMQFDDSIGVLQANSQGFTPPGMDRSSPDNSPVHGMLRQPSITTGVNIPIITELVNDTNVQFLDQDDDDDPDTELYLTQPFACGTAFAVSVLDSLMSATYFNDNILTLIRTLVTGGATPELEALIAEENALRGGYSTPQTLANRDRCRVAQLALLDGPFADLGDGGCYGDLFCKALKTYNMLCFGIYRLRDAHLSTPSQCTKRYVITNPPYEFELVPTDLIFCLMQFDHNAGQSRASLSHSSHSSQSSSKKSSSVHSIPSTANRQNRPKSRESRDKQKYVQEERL

## BK channel α subunit (hSloα1, human slow poke alpha subunit K+ channel), Q12791 1-1236 (natural protein; other documents disagree on this pair)
  stoichiometry N: 4
